T1: AncMsPFK/GK (synthetic construct, UniProt Z9Y5W3ZEF0)
T1 construct: heat step 80 C, Ni-Sepharose
T1 sequence (Z9Y5W3ZEF0 22-511): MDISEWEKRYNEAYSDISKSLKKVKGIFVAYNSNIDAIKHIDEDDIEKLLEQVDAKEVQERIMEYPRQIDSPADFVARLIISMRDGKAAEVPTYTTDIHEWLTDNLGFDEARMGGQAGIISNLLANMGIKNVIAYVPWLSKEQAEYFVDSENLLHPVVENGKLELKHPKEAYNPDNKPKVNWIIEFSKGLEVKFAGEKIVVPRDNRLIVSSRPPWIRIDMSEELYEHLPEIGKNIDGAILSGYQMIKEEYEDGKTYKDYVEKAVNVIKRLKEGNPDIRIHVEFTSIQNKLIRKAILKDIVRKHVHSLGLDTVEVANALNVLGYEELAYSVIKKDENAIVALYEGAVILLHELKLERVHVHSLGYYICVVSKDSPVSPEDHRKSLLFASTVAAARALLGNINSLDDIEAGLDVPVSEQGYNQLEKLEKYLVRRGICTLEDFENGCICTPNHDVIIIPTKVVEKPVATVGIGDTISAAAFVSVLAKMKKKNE


Assays:
[1] = target: T1, AncMsPFK/GK; experiment: X-ray crystal structure, […] Å; assay type: binding; conditions: Mg2+ in active site; Ni2+ at three surface sites; crystals pH 4.5
[2] = substrate: Nc1ncnc2c1ncn2[C@@H]1O[C@H](COP(=O)(O)OP(=O)(O)O)[C@@H](O)[C@H]1O; experiment: purified protein; assay type: biochemical, Methanosarcina mazei; conditions: PFK activity, saturating fructose-6P, 25 mM PIPES pH 6.5, 40 C, as Mg-ADP

Molecule	X-ray crystal structure, 2.86 Å [1]	Km [2]	kcat [2]	kcat/Km [2]
Nc1ncnc2c1ncn2[C@@H]1O[C@H](COP(=O)(O)OP(=O)(O)O)[C@@H](O)[C@H]1O [ADP]	crystals for the ancMsPFK/GK in complex with ADP, which was solved by molecular replacement			
MmazPFK/GK (Methanosarcina mazei Go1) (protein, de novo codon-optimized gene in pET-15b, N-terminal poly-His tag, E. coli C41; heat step 50 C, Ni-NTA, HiTrap-Q) MDMEEWEQRHNEAFYDAKEALPYLDGMFVAYNSNIDAIRHLDEEALTKLIGFFDEAEIQERVAVYPREIADPLDFIARLLIAMREGKAAEVPTYTEEIHTWLKEHLGFDYARMGGQAGIISNLLARLDLKKVVAYIPWLSAEQAEYFEDNGNILHPKVENGEVVLKTPAEAFNPGMGSKVNWIFEFSKDLKVSCAGSTFKVPRDNRLIISSRPKWIRLDMDRAIYDQLETIFPVDGAMLSGYQMIKEEYEDGSTYKDYVEHSVEVINKLKSLNPDLRIHVELTSIQNRVIRKAILTEIVARHVHSLGLDTVEVANALNVLGYEELSYSVIRKGENGIMSLYQGAVQLMKDLKLERVHVHSLGFYICILAKGHPLTLKEHRDALLFSSVLAASRALHGKIEDLNEAETGLDVPVSAQGLEDLETFKLYCTGRKLCSPDEFEYGYIYGSDHDAILIPSKVVDRPKATVGIGDTISAGAFAAMLARMKQIKSGK		72 ± 9 µM	6.1 ± 0.3 s⁻¹	84500 M⁻¹ s⁻¹

— paper PMC6028617, “ADP-Dependent Kinases From the Archaeal Order Methanosarcinales Adapt to Salt by a Non-canonical Evolutionarily Conserved Strategy” (Frontiers in Microbiology, 2018)
